According to the supplement of paper PMC9170038:

System: MS2 coat protein
Assay: apparent KD of MS2 coat protein; designed switch direction (-1 OFF switch, 1 ON switch): 1; higher = weaker reporter binding
Outline: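 Designed RNA switches with common flanks were transcribed on Illumina chips by stalled E. coli RNA polymerase and titrated with SNAP-549-labelled MS2 coat protein, from 0.7 or 1.5 nM doubling to 3 µM, in Tris-HCl pH 7.5 buffer with KCl, MgCl2, BSA, DTT, tRNA and Tween-20. Steps lasted 0.8–1.5 h (lowest) to 10–20 min (highest). Titrations ran without input, with 200 uM small-molecule ligand, or with an oligonucleotide input. Normalised cluster fluorescence was curve-fitted, and apparent KD is the per-design median over clusters.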

[1] = input ligand: microRNA oligo, concentration not stated
[2] = Eterna round: R95, input ligand: FMN 200 uM
[3] = Eterna round: R95, input ligand: microRNA oligo, concentration not stated
[4] = Eterna round: R95, input ligand: none

Sequence: AAACUCGUUGAAGGAUAUCCGGCAGCUAACAAACCGUAACAUGAGGAUCACCCAUGUGUUAGAAAGGAGAAGGUCAGUGACCGG [Eternabot solution 34] (Eterna round: R96, puzzle: Same State NG 2)
- apparent KD of MS2 coat protein (input ligand: FMN 200 uM): 17.2 nM
- apparent KD of MS2 coat protein [1]: 15.9 nM
- apparent KD of MS2 coat protein (input ligand: none): 22.3 nM

Sequence: ACAUGAGAGAUAGGAUAUCGUGUACCUACAUGUGACAUGAGGAUCACCCAUGUGGUAAGUAUGAGCGAGAAGGAUCAGAUAUGU [Equivalence 50 - Jieux - Same State NG 2] (Eterna round: R96, puzzle: Same State NG 2)
- apparent KD of MS2 coat protein (input ligand: FMN 200 uM): 24.6 nM
- apparent KD of MS2 coat protein [1]: 43.1 nM
- apparent KD of MS2 coat protein (input ligand: none): 78.4 nM

Sequence: AGCUAUCGCGUACGAUAGCUGAAGCGUGUACAUGAGGAUCACCCAUGUCAUGUGCAGGCUUUUUGCUCGUCUUAUUG [JL-shm-2.31 JL mod] (puzzle: Sensor for hsa-mir-208a)
- apparent KD of MS2 coat protein [2]: 640 nM
- apparent KD of MS2 coat protein [3]: 17.2 nM
- apparent KD of MS2 coat protein [4]: 648 nM

Sequence: GUGGCGGGUUGAGGAUAUUGGUUGCCUAUGUUUAACAUGAGGAUCACCCAUGUGGGUUGCGGUUUCGAGAAGGUAGGUUGCUGG [salish99_SSNG2_r04_046] (Eterna round: R96, puzzle: Same State NG 2)
- apparent KD of MS2 coat protein (input ligand: FMN 200 uM): 228 nM
- apparent KD of MS2 coat protein [1]: 109 nM
- apparent KD of MS2 coat protein (input ligand: none): 188 nM

Sequence: UUCCACGUUGCACAGGAUAUCCAAGCCGUGACAUGAGGAUCACCCAUGUCUAGUAGGCGACUAAGGGAGAAGGGUGUUGUCGUGC [Biuser] (puzzle: Same State 2)
- apparent KD of MS2 coat protein [2]: 10.8 nM
- apparent KD of MS2 coat protein [3]: 10.1 nM
- apparent KD of MS2 coat protein [4]: 10.1 nM

Sequence: ACAUGAGACUUAGGAUAUGUUGUACCUACAUGUGACAUGAGGAUCACCCAUGUGGUAAGUAUGAUACAGAAGGAAGAGAUAUGU [Equivalance 66 - Jieux - Same State NG 2] (Eterna round: R96, puzzle: Same State NG 2)
- apparent KD of MS2 coat protein (input ligand: FMN 200 uM): 17.2 nM
- apparent KD of MS2 coat protein [1]: 27.5 nM
- apparent KD of MS2 coat protein (input ligand: none): 42.9 nM

Sequence: GACCGCGAGGAAGGAUAUGGAGCCUUAAAGGCUCCAGAAGGUCCAUAAAGGACAUGAGGAUCACCCAUGUGGUGAGAAGCGGUC [Mat - Same State NG 1 - JL mod - D75] (Eterna round: R96, puzzle: Same State NG 1)
- apparent KD of MS2 coat protein [1]: 711 nM

Sequence: UUACUCAUGUAAGGAUAUGCAGCCGUUUCGGCUGCAGAAGGUACUAUAAUACAUGAGGAUCACCCAUGUCUUUUUAAUUUUGAC [JL SSNG1 1.27] (Eterna round: R96, puzzle: Same State NG 1)
- apparent KD of MS2 coat protein (input ligand: FMN 200 uM): 79.3 nM
- apparent KD of MS2 coat protein [1]: 34.5 nM
- apparent KD of MS2 coat protein (input ligand: none): 39.2 nM

Sequence: CGUCGCUGUCGAGAGGAUAUGCGGUGAUGGACAUGAGGAUCACCCAUGUUAGCGAUAGCAUCACGGUAGAAGGCUCUUACGACUG [Soteed Omei mod 24] (puzzle: Same State 2)
- apparent KD of MS2 coat protein [2]: 12.6 nM
- apparent KD of MS2 coat protein [3]: 20 nM
- apparent KD of MS2 coat protein [4]: 26.8 nM

Sequence: UUGCGGGCUUGAGGAUAUUGAGUACAUAUGUUUAACAUGAGGAUCACCCAUGUGGGUUGCGGUAUCGAGAAGGUAACUUCCUUC [salish99_SSNG2_r04_810] (Eterna round: R96, puzzle: Same State NG 2)
- apparent KD of MS2 coat protein (input ligand: FMN 200 uM): 190 nM
- apparent KD of MS2 coat protein [1]: 146 nM
- apparent KD of MS2 coat protein (input ligand: none): 157 nM

Sequence: GGUCCAGCCUGAGCUGGACAAAAGCAUGUACAUGAGGAUCACCCAUGUUAUGUACAAGCUUUUUGCUCGUCUUAAAA [JL mod - D87 - 10] (puzzle: Sensor for hsa-mir-208a)
- apparent KD of MS2 coat protein [2]: 172 nM
- apparent KD of MS2 coat protein [3]: 12.6 nM
- apparent KD of MS2 coat protein [4]: 231 nM

Sequence: UUAUUAUUUACAUGAGGAUCACCCAUGUUUUUAUGUCUUAGACAGGAUAUAGUAGUCUCGUUUUACUAGAAGGGUCUUUUUAUU [JR_SSNG3_Sub018] (Eterna round: R96, puzzle: Same State NG 3)
- apparent KD of MS2 coat protein (input ligand: FMN 200 uM): 21.3 nM
- apparent KD of MS2 coat protein [1]: 31.9 nM
- apparent KD of MS2 coat protein (input ligand: none): 39.4 nM

Sequence: GUACAUAUCAGAGGAUAUCACGUCGAAUAGACGUGAGAAGGCUGAUCACACAUGAAUAUUAAUACAUGAGGAUCACCCAUGUAC [SSNG1/13-A1] (Eterna round: R96, puzzle: Same State NG 1)
- apparent KD of MS2 coat protein (input ligand: FMN 200 uM): 16.9 nM
- apparent KD of MS2 coat protein [1]: 24.5 nM
- apparent KD of MS2 coat protein (input ligand: none): 31.2 nM

Sequence: UGGCUGAGUCGAGGAUAUGAUCUUCAUAUAUAUACAUGAGGAUCACCCAUGUAUAAUUACAUGGAUCAGAAGGCGACUCAGCCU [SSNG2/13-A2] (Eterna round: R96, puzzle: Same State NG 2)
- apparent KD of MS2 coat protein [1]: 23 nM

Sequence: UGCUUCGUGUAAGGAUAUGCAGCCGUUUCGGCUGCAGAAGGUACUAUAAUACAUGAGGAUCACCCAUGUCUCUCGCAUUGCGGG [salish99_SSng1_r04_303] (Eterna round: R96, puzzle: Same State NG 1)
- apparent KD of MS2 coat protein (input ligand: FMN 200 uM): 37.5 nM
- apparent KD of MS2 coat protein [1]: 40.3 nM
- apparent KD of MS2 coat protein (input ligand: none): 52.2 nM

Sequence: GAAUAGUUGAGAGGAUAUCUAUUAUUGUAGGAUAGAGAAGGUUUUAACAUGAGGAUCACCCAUGUAGGACUAUAUAUGUGAAUA [Parity 99 - Jieux - Same State NG 1] (Eterna round: R96, puzzle: Same State NG 1)
- apparent KD of MS2 coat protein (input ligand: FMN 200 uM): 14.2 nM
- apparent KD of MS2 coat protein [1]: 12.5 nM
- apparent KD of MS2 coat protein (input ligand: none): 15.3 nM

Sequence: GGCGAACAGGCUAACAUGAGGAUCACCCAUGUGGACUCAUGGUAGGAUAUCGGGAAGGAGGAAACCGAGAAGGGCCGGUGAGCC [AK SSNG3-V2-48] (Eterna round: R96, puzzle: Same State NG 3)
- apparent KD of MS2 coat protein (input ligand: FMN 200 uM): 14.3 nM
- apparent KD of MS2 coat protein [1]: 20 nM
- apparent KD of MS2 coat protein (input ligand: none): 716 nM

Sequence: GGAGCCGGCACUGAGGAUAUUCAUAUUAAAACAUGAGGAUCACCCAUGUAGGCCAGAAGGCCUUGGGAGAAGGCGGAUCGGCUCG [Xeonanis - 14] (puzzle: Same State 2)
- apparent KD of MS2 coat protein [2]: 78.7 nM
- apparent KD of MS2 coat protein [3]: 181 nM
- apparent KD of MS2 coat protein [4]: 1070 nM

Sequence: GGAAAGAGGUUAGGAUAUGCAUGGCUGGGACAUGAGGAUCACCCAUGUAAUAGAAGAAAUCUAGGGUAGAAGGGACAAGGAAGG [ssng2 v2 a] (Eterna round: R96, puzzle: Same State NG 2)
- apparent KD of MS2 coat protein (input ligand: FMN 200 uM): 507 nM
- apparent KD of MS2 coat protein [1]: 278 nM
- apparent KD of MS2 coat protein (input ligand: none): 644 nM

Sequence: UGCAUACAUGAGGAUCACCCAUGUCAACGUAGUCGAGGAUAUGGGCAGCCGUGAGGCGUACCAGAAGGCGAAGAGG [JL-ss1-3.04 ViennaUCT mod] (puzzle: Same State 1)
- apparent KD of MS2 coat protein [2]: 28.7 nM
- apparent KD of MS2 coat protein [3]: 62.2 nM
- apparent KD of MS2 coat protein [4]: 77.9 nM

Sequence: ACAUGAGAUAGAGGAUAUAUUGUACCUACAUGUGACAUGAGGAUCACCCAUGUGGUAAGUAUGACAUAGAAGGCUGAGAUAUGU [Equivalance 83 - Jieux - Same State NG 2] (Eterna round: R96, puzzle: Same State NG 2)
- apparent KD of MS2 coat protein (input ligand: FMN 200 uM): 69.8 nM
- apparent KD of MS2 coat protein [1]: 67.5 nM
- apparent KD of MS2 coat protein (input ligand: none): 77 nM

Sequence: UUAAUGAAGUAAGGAUAUACAUGAGGAUUUCUCGUAGAAGGUACUAUACAUGAGGAUCACCCAUGUGCCGGUCAGAAGACUGGA [Mat - Same State NG 1 - JL mod - D10] (Eterna round: R96, puzzle: Same State NG 1)
- apparent KD of MS2 coat protein [1]: 301 nM

Sequence: GAGUGGUGGAGAGGAUAUACAUUGUUAUUCACUGUAGAAGGUUCUAACAUGAGGAUCACCCAUGUAGGACUAUUCCUGAGAGUU [Parity 55 - Jieux - Same State NG 1] (Eterna round: R96, puzzle: Same State NG 1)
- apparent KD of MS2 coat protein (input ligand: FMN 200 uM): 13.1 nM
- apparent KD of MS2 coat protein [1]: 10.9 nM
- apparent KD of MS2 coat protein (input ligand: none): 14.2 nM

Sequence: UAUAAACAUGAGGAUCACCCAUGUAAUAAUAUGGGAGGAUAUCAGAAUUUAUUUAUUUAAUGAGAAGGCCUAAUAU [Mat - Same State 1 - Mod of Eli - D67] (Eterna round: R96, puzzle: Same State 1)
- apparent KD of MS2 coat protein [1]: 440 nM

Sequence: GGUCCAGCCUGAGCUGGACGGUAGUAUGUACAUGAGGAUCACCCAUGUCAUGUAGAAGUUACUUGUUCGUCUUGAAC [SENSOR #1] (puzzle: Sensor for hsa-mir-208a)
- apparent KD of MS2 coat protein [2]: 15.1 nM
- apparent KD of MS2 coat protein [3]: 13.3 nM
- apparent KD of MS2 coat protein [4]: 14.9 nM

Sequence: GUUAGGAAUCUAGCAUACAUGAGGAUCACCCAUGUUAGUGGGAAGGAUAUGGUACAGAAACUGUACCAGAAGGUCUUAUUGUUU [Omei SS(NG) 3 AV12] (Eterna round: R96, puzzle: Same State NG 3)
- apparent KD of MS2 coat protein (input ligand: FMN 200 uM): 210 nM
- apparent KD of MS2 coat protein [1]: 348 nM
- apparent KD of MS2 coat protein (input ligand: none): 408 nM

Sequence: AGGGAGGAUGCAGGAUAUACAAGACAUGAGGAUCACCCAUGUACCUUGUGGAGAAGAAAGGAGAGGUAGAAGGGUAGUGAGGAA [Default title] (Eterna round: R96, puzzle: Same State NG 2)
- apparent KD of MS2 coat protein (input ligand: FMN 200 uM): 11.7 nM
- apparent KD of MS2 coat protein [1]: 13 nM
- apparent KD of MS2 coat protein (input ligand: none): 16.4 nM

Sequence: GGAGAGAGAGCGCAGGAUAUUCAAGGAGAGACAUGAGGAUCACCCAUGUAAGAGAGAGAGGAGAGGGAGAAGGGUGAGAGAGAGG [Altered State 2-12 - Jieux - Same State 2] (puzzle: Same State 2)
- apparent KD of MS2 coat protein [2]: 28.5 nM
- apparent KD of MS2 coat protein [3]: 27.8 nM
- apparent KD of MS2 coat protein [4]: 22 nM

Sequence: UUAAUGAUGUAAGGAUAUACAUGAGGAUUUCUCGUAGAAGGUACAAGACAUGAGGAUCACCCAUGUGUCGCUCCGUAGAGCGUA [JL SSNG1 1.09] (Eterna round: R96, puzzle: Same State NG 1)
- apparent KD of MS2 coat protein [1]: 132 nM

Sequence: GGAGGACAUGAGGAUCACCCAUGUGGAUGGGCGCUAGGAUAUGCGUGCGGGAAGAGUGGAGCAGAAGGAGUGGGUU [JR_SS1_Sub045] (puzzle: Same State 1)
- apparent KD of MS2 coat protein [3]: 37.4 nM

Sequence: GACAAUCUAUCUGAGGAUAUCAUGAGAAGAACAUGAGGAUCACCCAUGUGCAGGAAAACUGCAUAUGAGAAGGCAGAUAGAUUGG [Mat - Same State 2 - Mod - D17] (puzzle: Same State 2)
- apparent KD of MS2 coat protein [2]: 47.8 nM
- apparent KD of MS2 coat protein [3]: 607 nM
- apparent KD of MS2 coat protein [4]: 3570 nM
